Test results: publication PMC8291550

Target: rat skeletal muscle sodium channel rNaV1.4 (UniProt P15390)
Experiment: washing-out time-course analysis (electrophysiology)
Details: read off a plot

Sequence of UniProt P15390 (P15390 whole entry): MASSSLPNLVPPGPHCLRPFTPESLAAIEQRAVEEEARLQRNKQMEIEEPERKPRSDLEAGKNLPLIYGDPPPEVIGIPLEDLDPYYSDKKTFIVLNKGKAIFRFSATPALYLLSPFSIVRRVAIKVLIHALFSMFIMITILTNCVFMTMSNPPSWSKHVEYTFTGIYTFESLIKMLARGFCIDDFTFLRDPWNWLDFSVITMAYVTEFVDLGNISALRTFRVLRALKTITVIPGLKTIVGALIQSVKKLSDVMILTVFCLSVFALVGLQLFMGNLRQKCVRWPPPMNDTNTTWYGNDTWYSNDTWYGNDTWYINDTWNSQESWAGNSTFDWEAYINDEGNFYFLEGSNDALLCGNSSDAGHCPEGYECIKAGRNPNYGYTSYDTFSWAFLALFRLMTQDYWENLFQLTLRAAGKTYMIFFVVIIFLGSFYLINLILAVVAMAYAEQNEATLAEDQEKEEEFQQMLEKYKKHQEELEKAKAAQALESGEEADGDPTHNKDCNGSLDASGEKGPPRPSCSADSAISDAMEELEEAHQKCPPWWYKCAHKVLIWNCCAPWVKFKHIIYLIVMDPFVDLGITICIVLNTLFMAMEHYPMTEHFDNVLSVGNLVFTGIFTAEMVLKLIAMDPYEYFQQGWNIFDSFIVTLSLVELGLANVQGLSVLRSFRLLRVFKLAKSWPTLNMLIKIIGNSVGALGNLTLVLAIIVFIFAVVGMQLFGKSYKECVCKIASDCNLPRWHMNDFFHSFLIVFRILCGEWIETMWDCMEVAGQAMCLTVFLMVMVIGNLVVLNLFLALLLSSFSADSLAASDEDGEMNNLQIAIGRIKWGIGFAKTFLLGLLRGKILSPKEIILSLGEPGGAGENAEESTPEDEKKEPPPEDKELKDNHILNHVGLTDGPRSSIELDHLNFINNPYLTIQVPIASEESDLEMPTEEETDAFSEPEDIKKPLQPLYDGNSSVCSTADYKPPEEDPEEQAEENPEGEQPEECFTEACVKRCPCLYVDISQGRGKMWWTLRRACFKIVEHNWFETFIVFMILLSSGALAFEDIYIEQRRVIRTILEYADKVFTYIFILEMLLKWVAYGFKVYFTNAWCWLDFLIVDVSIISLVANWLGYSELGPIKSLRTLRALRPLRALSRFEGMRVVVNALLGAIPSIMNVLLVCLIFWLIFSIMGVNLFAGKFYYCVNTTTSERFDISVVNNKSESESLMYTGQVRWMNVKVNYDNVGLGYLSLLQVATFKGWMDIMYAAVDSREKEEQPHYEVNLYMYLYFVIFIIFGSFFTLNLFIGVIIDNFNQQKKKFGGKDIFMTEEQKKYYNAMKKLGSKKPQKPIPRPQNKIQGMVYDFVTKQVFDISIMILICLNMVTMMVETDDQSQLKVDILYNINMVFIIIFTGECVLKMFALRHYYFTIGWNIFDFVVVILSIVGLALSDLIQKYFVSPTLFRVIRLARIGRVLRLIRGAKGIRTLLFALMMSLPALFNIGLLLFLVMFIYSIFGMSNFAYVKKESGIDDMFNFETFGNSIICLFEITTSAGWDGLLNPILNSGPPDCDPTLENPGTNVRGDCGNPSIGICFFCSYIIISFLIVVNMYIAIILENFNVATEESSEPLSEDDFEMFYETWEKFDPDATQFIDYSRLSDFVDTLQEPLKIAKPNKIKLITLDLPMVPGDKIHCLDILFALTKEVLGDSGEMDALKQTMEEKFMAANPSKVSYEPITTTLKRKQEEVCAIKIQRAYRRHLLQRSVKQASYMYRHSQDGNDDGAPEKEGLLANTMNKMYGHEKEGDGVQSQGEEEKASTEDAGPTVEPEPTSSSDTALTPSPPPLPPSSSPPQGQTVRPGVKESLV

Row | Substance | other: τoff
1 | BmK-M9 D3G | 1900 s
2 | BmK-M9 D28G | 1800 s
3 | BmK-M9 D53G | 1700 s
4 | BmK-M9 E10G | 1700 s
5 | BmK-M9 E20G | 1600 s
6 | BmK-M9 E32G | 1800 s
7 | BmK-M9 H15G | 1500 s
8 | BmK-M9 H64G | 1800 s
9 | BmK-M9 K8G | 1700 s
10 | BmK-M9 K24G | 1800 s
11 | BmK-M9 K50G | 1600 s
12 | BmK-M9 K62G | 8.5 s
13 | BmK-M9 R2G | 1300 s
14 | BmK-M9 R41G | 1700 s
15 | BmK-M9 R54G | 1800 s
16 | BmK-M9 R58G | 2000 s
17 | BmK-M9 Y42G | 17 s
